Assay results from US20190322748A1 (Hoffmann-La Roche, published 2019).
Residue numbers refer to the chain shown, from its start.

B1: PD1-0073 (antibody, V domains shown)
VH: EVKLVESGGGLVKPGGSLKLSCAASGFTFSNYGMSWIRQTPEKGLEWVATISGGGRDTYYPDSVKGRFTISRDNVKNNLYLQMSSLRSEDTAFYYCASYYYGIDYWGQGTSVTVSS
VL: DIVMTQPHKFMSTSVGDRVRITCKASQDVTTAVAWYQQKPGQSPKLLIYWASTRHTGVPDRFTGSGSGTEFTLTISSVQAEDLALYYCQQHYSIPWTFGGGTKLEIK
B2: PD1-0102 (antibody, V domains shown)
VH: DVQLQESGPDLVKPSQSLSLTCTVTGYSITSGYSWHWIRQFPGNKLEWMGFIHSSGDTNYNPSLKSRISFTRDTSKNQFFLQLSSLTDEDTATYYCATYRNWYFDVWGAGTTVTVSS
VL: DIVMTQSPSSLTVTAGEKVTMRCKSSQSLLNSGTQKNYLTWYQQKPGQPPKLLIYWASTRESGVPNRFTGSGSGTDFTLTISSVQAEDLSVYYCQSDYTFPLTFGGGTKLELK
B3: PD1-0078 (antibody, V domains shown)
VH: QVQLQQPGAELVKPGASVKMSCKASGYTFTSTWMHWVKQRPGQGLEWIGAIDPSDSYTTYNQKFKGKATLTVDTSSTTAYMQLSSLTSEDSAVYYCTRSPFDYWGQGTTLTVSS
VL: DIVMTQSHKFMSTSVGDRVSITCKASQDVSTAVAWYQQKPGQSPKLLIYSASYRYTGVPDRFTGSGSGTDFTFAISSVQAEDLAVYYCQQHYSHPFTFGSGTKLEIK
B4: PD1-0069 (antibody, V domains shown)
VH: QVQLQQSGPELVRPGVSVKISCKGSGYTFTDYAMHWVKQSHARTLEWIGVISTYSGDTNYNQKFKDKATMTVDKSSSTAYLELARMTSEDSAIYYCARLGITTGFAYWGQGTLVTVSA
VL: DIVLTQSPASLAVSLGQRATISCRASKGVSTSSYSFMHWYQQKPRQPPKLLIKYASYLESGVPARFSGSGSGTDFTLNIHPVEEEDAATYYCHHSREFPWTFGGGTKLEIK
B5: PD1-0050 (antibody, V domains shown)
VH: DVQLQESGPGLVKPSQSLSLTCTVTGYSITSDYAWNWIRQFPGNKLEWMGYITYTGRTSYNPSLKSRISITRDTSKNQFFLQLNSVTTEDTATYYCAREMDYYGSTLDYWGQGTTLTVSS
VL: KIVLTQSPASLAVSLRQRATISCRASESVDRYGNSFIHWYQQKPGQPPKVLIYRASNLESGFPARFSGSGSRTDFTLTIDPVEADDAATYYCQQNNEDPYTFGSGTKLEIK
B6: PD1-0098 (antibody, V domains shown)
VH: DVQLQESGPGLVKPSQSLSLTCTVTGYSITSDYAWNWIRQFPGDKLEWLGYITYSGFTNYNPSLKSRISISRDTSKNQFFLQLNSVATEDTATYYCARWHGSAPWYFDYWGRGTTLTVSS
VL: DVLMTQTPLSLPVSLGDQASISCRSSQNIVHSDGNTYLEWYLQKPGQSPNLLIYKVSRRFSGVPDRFSGSGSGTDFTLKISRVEAEDLGVYYCFQGSHFPLTFGAGTKLELK
B7: PD1-0103 (antibody, V domains shown)
VH: EVILVESGGGLVKPGGSLKLSCAASGFSFSSYTMSWVRQTPEKRLDWVATISGGGRDIYYPDSVKGRFTISRDNAKNTLYLEMSSLMSEDTALYYCVLLTGRVYFALDSWGQGTSVTVSS
VL: KIVLTQSPASLPVSLGQRATISCRASESVDTSDNSFIHWYQQRPGQSPKLLIYRSSTLESGVPARFSGSGSRTDFTLTIDPVEADDVATYYCQQNYDVPWTFGGGTKLEIK
notes: Mouse monoclonal antibody
B8: Tim3_0016 (antibody, V domains shown)
VH: QVTLKESGPGILQPSQTLRLTCSFSGFSLSTSGMSVGWIRQPSGKGLEWLAHIWLNDDVFFNPALKSRLTISKDTSNNQVFLQIASVVTADTATYYCVRANGYLYALDYWGQGTSVTVSS
VL: QIVLTQSPAIMSASPGQKVTITCSASSSVNYTQWYQQKLGSSPKLWIYDAFKLAPGVPARFSGSGTGTSYSLTISSMEAEDAASYFCHQWSSYPWTFGGGTKLEIK
B9: Tim3_0038 (antibody, V domains shown)
VH: EVQLQQSGAEPLKPGASVKLTCTTSGFNIKDYYIHWVKQRSDQGLEWIGRIDPEDGELIYAPKFQDKATITVDTSSNIAYLQLNSLTSEDTAVYYCSRDHGYVGWFAYWGQGTLVTVSA
VL: NVVMTQSPKSMIMSVGQRVTLNCKASENVDTYVSWYQQKPEQSPKLLIYGASNRYTGVPDRFTGSRSATDFTLTISSVQAEDLAVYYCGQSYSYPWTFGGGTKLEFR
B10: Tim3_0018MutNQ (antibody, V domains shown)
VH: B8 VH with R19S, S67R, T114I
VL: B8 VL with N30Q
B11: Tim3_0018MutNS (antibody, V domains shown)
VH: B8 VH with R19S, S67R, T114I
VL: B8 VL with N30S
B12: Tim3_0016MutNQ (antibody, V domains shown)
VH: B8 VH
VL: B8 VL with N30Q
B13: Tim3_0016MutNS (antibody, V domains shown)
VH: B8 VH
VL: B8 VL with N30S
B14: Chimeric TIM3-0028 (antibody, human IgG1, V domains shown)
VH: EVQLQQSVAELVRPGASVKLSCTASGFNIKTTYMHWVKQRPEQGLEWIGRIDPADDNTKYAPKFQGKATITADTSSNTAYLQLSSLTSEDAAIYYCVRDFGYVAWFAYWGQGTLVTFSA
VL: NIVMTPTPKFLPVSSGDRVTMTCRASQSVDNYVAWYQQKPGQSPKLLIYYASNRYIGVPDRFTGSGSGTDFTFTISSVQVEDLAVYFCQQHYSSPYTFGSGTKLEIK
notes: also called aTIM3-chi28

target: T1, biotinylated PD1-ECD-AviHis (human, UniProt Q15116 25-170, biotinylated, site not stated); experiment: ELISA on coated biotinylated PD1-ECD-AviHis
T1 construct: also called huPD1; hu PD1

Going from B1 to B2, the EC50 rises from 0.0151 µg/mL to 0.0342 µg/mL (2.3-fold).

First: B3
Second: B4
The EC50 of the first is 1.7-fold lower: 0.0263 µg/mL for the first, 0.0457 µg/mL for the second.

Compared with B5, B6 is 2.8-fold higher in EC50: 0.0179 µg/mL for the first, 0.0508 µg/mL for the second.

In the case of B7, the EC50 is reported as 0.0337 µg/mL.

target: T2, full-length human Tim3 on cells (CHO-K1 stably transfected with plasmid 15312_hTIM3-fl_pUC_Neo) (human, UniProt Q8TDQ0 22-301); experiment: cell-based or functional assay

Compared with B8, B9 is lower in “IFN-gamma release in MLR at 1 µg/ml antibody, % of rec hu IL-2 (20 EU/ml) = 100%” value: 7% for the first, 1% for the second.

Compared with B8, B9 is higher in “IFN-gamma release in MLR at 10 µg/ml antibody, % of rec hu IL-2 (20 EU/ml) = 100%” value: 22% for the first, 38% for the second.

B9 was tested, and the “IFN-gamma release in MLR at 40 µg/ml antibody, % of rec hu IL-2 (20 EU/ml) = 100%” value was 51%.

target: T3, Tim3-ECD-His-Biotin (human, UniProt Q8TDQ0 22-202, biotinylated with BirA Ligase, site not stated); experiment: ELISA on human Tim3 (values in relation to the samples max value)
T3 construct: also called human Tim3 (ELISA); Biochem Human

B10 and B11 are within 1.5-fold of each other in EC50: 0.012 µg/mL for the first, 0.0103 µg/mL for the second.

B12 and B13 are within 1.5-fold of each other in EC50: 0.0076 µg/mL for the first, 0.0085 µg/mL for the second.

target: T1, biotinylated PD1-ECD-AviHis; experiment: ELISA, inhibition of PD-L2 Fc binding to coated PD1-ECD-AviHis
Method: After washing (3×90 μl/well with PBST-buffer) 25 μl anti PD1 samples or reference antibodies (mouse anti huPD1; Roche) were added and incubated 1 h at RT on shaker.

Going from B1 to B2, the IC50 rises from 0.065 µg/mL to 0.14 µg/mL (2.2-fold).

B3 and B4 are within 1.5-fold of each other in IC50: 0.086 µg/mL for the first, 0.089 µg/mL for the second.

B5 and B6 are within 1.5-fold of each other in IC50: 0.034 µg/mL for the first, 0.045 µg/mL for the second.

B7 was tested, and the IC50 was 0.051 µg/mL.

target: T1, biotinylated PD1-ECD-AviHis; experiment: ELISA, inhibition of PD-L1 Fc binding to coated PD1-ECD-AviHis

First: B1
Second: B2
The IC50 of the first is lower: 0.124 µg/mL for the first, greater than 35.5 µg/mL for the second.

Going from B4 to B5, the IC50 falls from 0.225 µg/mL to 0.128 µg/mL (1.8-fold).

B6 and B7 are within 1.5-fold of each other in IC50: 0.174 µg/mL for the first, 0.182 µg/mL for the second.

target: T2, full-length human Tim3 on cells (CHO-K1 …); experiment: cellular ELISA on CHO-TIM3
Method: (§1) Then the reaction was stopped by addition of 25 μl/well 1N HCL-solution.

B10 and B11 are within 1.5-fold of each other in Inflexion point: 12.8 ng/mL for the first, 11.1 ng/mL for the second.

Compared with B12, B13 is 1.6-fold higher in Inflexion point: 5.4 ng/mL for the first, 8.5 ng/mL for the second.

target: T4, biotinylated cynoPD1-ECD-Biotin (cynomolgus); experiment: ELISA on coated cynoPD1-ECD-Biotin
T4 construct: extracellular domain; also called cyPD1
Method: After washing (3×90 μl/well with PBST-buffer) 25 μl anti PD1 samples or reference antibodies (human anti PD1; Roche) were added and incubated 1 h at RT on shaker. After washing (3×90 μl/well with PBST-buffer) 25 μl/well goat-anti-human H+L-POD (JIR, JIR109-036-088) was added in 1:1000 dilution and incubated at RT for 1 h on shaker.

Going from B1 to B2, the EC50 rises from 0.0083 µg/mL to 0.0527 µg/mL (6.3-fold).

B3 and B4 are within 1.5-fold of each other in EC50: 0.0224 µg/mL for the first, 0.0227 µg/mL for the second.

Compared with B5, B6 is 5.6-fold higher in EC50: 0.0098 µg/mL for the first, 0.0546 µg/mL for the second.

For B7, the EC50 was 0.0369 µg/mL.

target: T1, biotinylated PD1-ECD-AviHis; experiment: ELISA on coated biotinylated PD1-ECD-AviHis; remark: another data set of the same source
Method: After washing (3×90 μl/well with PBST-buffer) 25 μl anti PD1 antibody samples were added in increasing concentrations and incubated 1 h at RT. After washing (3×90 μl/well with PBST-buffer) 25 μl/well goat-anti-human H+L-POD (JIR, JIR109-036-098) was added in 1:5000 dilution and incubated at RT for 1 h on a shaker.

B14: no binding.

target: T2, full-length human Tim3 on cells (CHO-K1 …); experiment: cellular ELISA on CHO-TIM3 (values in relation to the samples max value)
Method: as §1

B10 and B11 are within 1.5-fold of each other in EC50: 0.0134 µg/mL for the first, 0.0112 µg/mL for the second.

B12 and B13 are within 1.5-fold of each other in EC50: 0.0063 µg/mL for the first, 0.0091 µg/mL for the second.

target: T3, Tim3-ECD-His-Biotin; experiment: ELISA on human Tim3

First: B10
Second: B11
The Inflexion point of the first is 1.7-fold higher: 10.8 ng/mL for the first, 6.5 ng/mL for the second.

B12 and B13 are within 1.5-fold of each other in Inflexion point: 5.7 ng/mL for the first, 5.5 ng/mL for the second.
